From PMC8359077, “DNA aptamer against EV-A71 VP1 protein: selection and application”

T1: EV-A71 VP1 (capsid protein) (Enterovirus A71) (UniProt Q66478)
T1 sequence: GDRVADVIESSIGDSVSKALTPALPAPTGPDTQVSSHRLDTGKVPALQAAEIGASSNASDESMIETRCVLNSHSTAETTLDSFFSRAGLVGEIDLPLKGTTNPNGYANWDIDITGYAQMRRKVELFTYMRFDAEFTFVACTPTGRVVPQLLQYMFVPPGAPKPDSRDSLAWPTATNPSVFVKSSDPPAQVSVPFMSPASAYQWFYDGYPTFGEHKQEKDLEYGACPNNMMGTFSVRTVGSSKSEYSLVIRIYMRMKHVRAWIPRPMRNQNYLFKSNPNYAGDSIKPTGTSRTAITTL

B1: V11 (ssDNA)
DNA: ACTAAGCCACCGTGTCCACCCTCGCCGAGTTTTCGTAACTATATCTTGTGGTTCCTATTGCTGCGTCACTCTGGAT
modifications: dU at positions 22,30,31,32,33,36,40,42,44,46,47,49,52,53,56,58,59,62,66,70,72,76 (printed 'U, uracil'; every T 3' of the 18-nt primer; whether the dU carries a C5 group is not stated)

Key:
[1] = biological target: T1, EV-A71 VP1 (capsid protein) (Enterovirus A71); test: ELISA; settings: 5 mM Mg2+; VP1 coated at 200 ng/mL; unit given as nm; given with U (uracil) mixed with t in a DNA aptamer; U may stand for T; 1x PBS, 5 mM MgCl2, 1% BSA, 1 ug/mL tRNA, 0.02% Tween-20, room temperature, 1 h; pH not stated
Bovine serum albumin = Bovine serum albumin (Bos taurus (Bovine), UniProt P02769 25-607); test: ELONA; PBS, 5 mM MgCl2, 1% BSA, 1 ug/mL tRNA, 0.02% Tween-20, RT; VP1 coated on plate; settings: label: 5'-biotin
Chain of Bovine serum albumin (P02769 25-607): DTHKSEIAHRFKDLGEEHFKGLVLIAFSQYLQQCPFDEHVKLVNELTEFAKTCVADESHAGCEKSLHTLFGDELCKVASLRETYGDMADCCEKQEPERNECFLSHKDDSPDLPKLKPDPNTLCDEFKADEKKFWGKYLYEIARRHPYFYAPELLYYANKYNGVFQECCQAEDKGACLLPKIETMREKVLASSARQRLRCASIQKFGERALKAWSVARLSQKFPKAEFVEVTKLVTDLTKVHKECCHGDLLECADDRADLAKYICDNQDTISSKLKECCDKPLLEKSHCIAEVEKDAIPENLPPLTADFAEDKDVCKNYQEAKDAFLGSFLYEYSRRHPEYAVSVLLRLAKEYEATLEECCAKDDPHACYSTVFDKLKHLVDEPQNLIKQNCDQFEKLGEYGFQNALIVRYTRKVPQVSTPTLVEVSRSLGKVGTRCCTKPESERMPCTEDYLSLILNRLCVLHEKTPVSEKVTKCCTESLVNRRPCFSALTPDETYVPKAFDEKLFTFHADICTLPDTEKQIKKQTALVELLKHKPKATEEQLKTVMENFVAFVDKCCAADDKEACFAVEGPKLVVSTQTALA

Molecule | Kd [1] [nM] | binding result (Bovine serum albumin)
ACTAAGCCACCGTGTCCACCCUCGCCGAGUUUUCGUAACUAUAUCUUGUGGUUCCUAUUGCUGCGUCACUCUGGAU [V11] | 4.28 | –
ACTAAGCCACCGTGTCCAUCAAUGGUGUGUGCAUUCGUGUGUUGUGUUGUUUGUUGUUUGCUGCGUCACUCUGGAU [V7] | 32.7 | –
ACTAAGCCACCGTGTCCAUUCGAUUCGAUCUAAUUUGGUUCUUUCCUCACUUUUCAGUGCUGCGUCACUCUGGAU [V21] | 4.55 | –
B1 | – | no binding
